Measurements reported in patent publication US20240279278A1, “NMU RECEPTOR 2 AGONISTS” (Boehringer Ingelheim International GmbH, priority 2023, published 2024).
Starred links: 1 amine or outer side, 2 acyl side, 3 side chain; linkers in the order of their positions; H or OH if unused. Non-standard residues stand in square brackets, D forms with d. *: point of attachment. Pipz(1-CH2CO,4-CH2CH2NH) = O=C(CN1CCN(CCN[*:1])CC1)[*:2]; C18 diacid = O=C(O)CCCCCCCCCCCCCCCCC(=O)*; γGlu = O=C(O)[C@H](CCC(=O)[*:2])N[*:1]; 4Pal = N[C@@H](Cc1ccncc1)C(=O)O; NMeL = CN[C@@H](CC(C)C)C(=O)O; Nle = CCCC[C@H](N)C(=O)O; Sar = CNCC(=O)O

T1: human neuromedin U receptor 1 (human, UniProt Q9HB89 24-426)
T1 sequence (looked up): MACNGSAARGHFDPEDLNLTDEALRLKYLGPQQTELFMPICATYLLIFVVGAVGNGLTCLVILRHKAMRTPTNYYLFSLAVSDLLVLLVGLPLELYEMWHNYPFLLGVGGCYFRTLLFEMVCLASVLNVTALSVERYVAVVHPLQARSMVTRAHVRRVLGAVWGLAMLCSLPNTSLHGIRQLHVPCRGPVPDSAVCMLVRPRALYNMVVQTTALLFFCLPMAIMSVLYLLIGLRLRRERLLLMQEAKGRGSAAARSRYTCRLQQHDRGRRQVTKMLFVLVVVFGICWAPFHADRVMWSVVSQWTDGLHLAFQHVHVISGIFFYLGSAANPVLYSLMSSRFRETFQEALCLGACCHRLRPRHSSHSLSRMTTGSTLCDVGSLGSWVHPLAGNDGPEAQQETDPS


Each binder was assayed against T1, human neuromedin U receptor 1 (assay: cell-based or functional assay).

| EC50 (hNMUR1) buffer | Binder |
| --- | --- |
| 190 nM | EEEEXXXXXXXXXXXXXYFLXRPRG (HELM PEPTIDE1{[O=C(O)CCCCCCCCCCCCCCCCCCC(=O)[*:2]].[gGlu].[gGlu].[gGlu].[gGlu].[Sar].[Sar].[Sar].[Sar].[Sar].[Sar].[Sar].[Sar].[Sar].[Sar].[Sar].[Sar].[O=C(CN1CCN(CCN[*:1])CC1)[*:2]].Y.F.[meL].[Nle].R.P.R.G.[am]}$$$$V2.0; SMILES CCCC[C@H](NC(=O)[C@H](CC(C)C)N(C)C(=O)[C@H](Cc1ccccc1)NC(=O)[C@H](Cc1ccc(O)cc1)NC(=O)CN1CCN(CCNC(=O)CN(C)C(=O)CN(C)C(=O)CN(C)C(=O)CN(C)C(=O)CN(C)C(=O)CN(C)C(=O)CN(C)C(=O)CN(C)C(=O)CN(C)C(=O)CN(C)C(=O)CN(C)C(=O)CN(C)C(=O)CC[C@H](NC(=O)CC[C@H](NC(=O)CC[C@H](NC(=O)CC[C@H](NC(=O)CCCCCCCCCCCCCCCCCCC(=O)O)C(=O)O)C(=O)O)C(=O)O)C(=O)O)CC1)C(=O)N[C@@H](CCCNC(=N)N)C(=O)N1CCC[C@H]1C(=O)N[C@@H](CCCNC(=N)N)C(=O)NCC(N)=O) [C20DA-gGlu4-Sar12-AEPipAc-Tyr-Phe-NMeLeu-Nle-Arg-Pro-Arg-Gly-NH2] |
| 870 nM | EEEEXXXXXXXXXXXXXYFLXXPRG (HELM PEPTIDE1{[O=C(O)CCCCCCCCCCCCCCCCC(=O)[*:2]].[gGlu].[gGlu].[gGlu].[gGlu].[Sar].[Sar].[Sar].[Sar].[Sar].[Sar].[Sar].[Sar].[Sar].[Sar].[Sar].[Sar].[O=C(CN1CCN(CCN[*:1])CC1)[*:2]].Y.F.[meL].[Nle].[Orn].P.R.G.[am]}$$$$V2.0; SMILES CCCC[C@H](NC(=O)[C@H](CC(C)C)N(C)C(=O)[C@H](Cc1ccccc1)NC(=O)[C@H](Cc1ccc(O)cc1)NC(=O)CN1CCN(CCNC(=O)CN(C)C(=O)CN(C)C(=O)CN(C)C(=O)CN(C)C(=O)CN(C)C(=O)CN(C)C(=O)CN(C)C(=O)CN(C)C(=O)CN(C)C(=O)CN(C)C(=O)CN(C)C(=O)CN(C)C(=O)CC[C@H](NC(=O)CC[C@H](NC(=O)CC[C@H](NC(=O)CC[C@H](NC(=O)CCCCCCCCCCCCCCCCC(=O)O)C(=O)O)C(=O)O)C(=O)O)C(=O)O)CC1)C(=O)N[C@@H](CCCN)C(=O)N1CCC[C@H]1C(=O)N[C@@H](CCCNC(=N)N)C(=O)NCC(N)=O) [C18DA-gGlu4-Sar12-AEPipAc-Tyr-Phe-NMeLeu-Nle-Orn-Pro-Arg-Gly-NH2] |
| 1300 nM | EEEEXXXXXXXXXXXXXYFLXXPRG (HELM PEPTIDE1{[O=C(O)CCCCCCCCCCCCCCCCC(=O)[*:2]].[gGlu].[gGlu].[gGlu].[gGlu].[Sar].[Sar].[Sar].[Sar].[Sar].[Sar].[Sar].[Sar].[Sar].[Sar].[Sar].[Sar].[O=C(CN1CCN(CCN[*:1])CC1)[*:2]].Y.F.[meL].[Nle].[Dab].P.R.G.[am]}$$$$V2.0; SMILES CCCC[C@H](NC(=O)[C@H](CC(C)C)N(C)C(=O)[C@H](Cc1ccccc1)NC(=O)[C@H](Cc1ccc(O)cc1)NC(=O)CN1CCN(CCNC(=O)CN(C)C(=O)CN(C)C(=O)CN(C)C(=O)CN(C)C(=O)CN(C)C(=O)CN(C)C(=O)CN(C)C(=O)CN(C)C(=O)CN(C)C(=O)CN(C)C(=O)CN(C)C(=O)CN(C)C(=O)CC[C@H](NC(=O)CC[C@H](NC(=O)CC[C@H](NC(=O)CC[C@H](NC(=O)CCCCCCCCCCCCCCCCC(=O)O)C(=O)O)C(=O)O)C(=O)O)C(=O)O)CC1)C(=O)N[C@@H](CCN)C(=O)N1CCC[C@H]1C(=O)N[C@@H](CCCNC(=N)N)C(=O)NCC(N)=O) [C18DA-gGlu4-Sar12-AEPipAc-Tyr-Phe-NMeLeu-Nle-Dbu-Pro-Arg-Gly-NH2] |
| 950 nM | EEEEXXXXXXXXXXXXXYFLXXPRG (HELM PEPTIDE1{[O=C(O)CCCCCCCCCCCCCCCCCCC(=O)[*:2]].[gGlu].[gGlu].[gGlu].[gGlu].[Sar].[Sar].[Sar].[Sar].[Sar].[Sar].[Sar].[Sar].[Sar].[Sar].[Sar].[Sar].[O=C(CN1CCN(CCN[*:1])CC1)[*:2]].Y.F.[meL].[Nle].[Orn].P.R.G.[am]}$$$$V2.0; SMILES CCCC[C@H](NC(=O)[C@H](CC(C)C)N(C)C(=O)[C@H](Cc1ccccc1)NC(=O)[C@H](Cc1ccc(O)cc1)NC(=O)CN1CCN(CCNC(=O)CN(C)C(=O)CN(C)C(=O)CN(C)C(=O)CN(C)C(=O)CN(C)C(=O)CN(C)C(=O)CN(C)C(=O)CN(C)C(=O)CN(C)C(=O)CN(C)C(=O)CN(C)C(=O)CN(C)C(=O)CC[C@H](NC(=O)CC[C@H](NC(=O)CC[C@H](NC(=O)CC[C@H](NC(=O)CCCCCCCCCCCCCCCCCCC(=O)O)C(=O)O)C(=O)O)C(=O)O)C(=O)O)CC1)C(=O)N[C@@H](CCCN)C(=O)N1CCC[C@H]1C(=O)N[C@@H](CCCNC(=N)N)C(=O)NCC(N)=O) [C20DA-gGlu4-Sar12-AEPipAc-Tyr-Phe-NMeLeu-Nle-Orn-Pro-Arg-Gly-NH2] |

More lines, now with the values behind:

| Binder | EC50 (hNMUR1) buffer |
| --- | --- |
| EEEXXXXXXXXXXXXXXXXYFLXKPRG (HELM PEPTIDE1{[O=C(O)CCCCCCCCCCCCCCCCC(=O)[*:2]].[gGlu].[gGlu].[gGlu].[Sar].[Sar].[Sar].[Sar].[Sar].[Sar].[Sar].[Sar].[Sar].[Sar].[Sar].[Sar].[Sar].[Sar].[Sar].[O=C(CN1CCN(CCN[*:1])CC1)[*:2]].Y.F.[meL].[Nle].K.P.R.G.[am]}$$$$V2.0; SMILES CCCC[C@H](NC(=O)[C@H](CC(C)C)N(C)C(=O)[C@H](Cc1ccccc1)NC(=O)[C@H](Cc1ccc(O)cc1)NC(=O)CN1CCN(CCNC(=O)CN(C)C(=O)CN(C)C(=O)CN(C)C(=O)CN(C)C(=O)CN(C)C(=O)CN(C)C(=O)CN(C)C(=O)CN(C)C(=O)CN(C)C(=O)CN(C)C(=O)CN(C)C(=O)CN(C)C(=O)CN(C)C(=O)CN(C)C(=O)CN(C)C(=O)CC[C@H](NC(=O)CC[C@H](NC(=O)CC[C@H](NC(=O)CCCCCCCCCCCCCCCCC(=O)O)C(=O)O)C(=O)O)C(=O)O)CC1)C(=O)N[C@@H](CCCCN)C(=O)N1CCC[C@H]1C(=O)N[C@@H](CCCNC(=N)N)C(=O)NCC(N)=O) [C18DA-gGlu3-Sar15-AEPipAc-Tyr-Phe-NMeLeu-Nle-Lys-Pro-Arg-Gly-NH2] | > 1000 nM |
| EEEXXXXXXXXXXXXXYFLXRARG (HELM PEPTIDE1{[O=C(O)CCCCCCCCCCCCCCCCC(=O)[*:2]].[gGlu].[gGlu].[gGlu].[Sar].[Sar].[Sar].[Sar].[Sar].[Sar].[Sar].[Sar].[Sar].[Sar].[Sar].[Sar].[O=C(CN1CCN(CCN[*:1])CC1)[*:2]].Y.F.[meL].[Nle].[meR].[meA].R.G.[am]}$$$$V2.0; SMILES CCCC[C@H](NC(=O)[C@H](CC(C)C)N(C)C(=O)[C@H](Cc1ccccc1)NC(=O)[C@H](Cc1ccc(O)cc1)NC(=O)CN1CCN(CCNC(=O)CN(C)C(=O)CN(C)C(=O)CN(C)C(=O)CN(C)C(=O)CN(C)C(=O)CN(C)C(=O)CN(C)C(=O)CN(C)C(=O)CN(C)C(=O)CN(C)C(=O)CN(C)C(=O)CN(C)C(=O)CC[C@H](NC(=O)CC[C@H](NC(=O)CC[C@H](NC(=O)CCCCCCCCCCCCCCCCC(=O)O)C(=O)O)C(=O)O)C(=O)O)CC1)C(=O)N(C)[C@@H](CCCNC(=N)N)C(=O)N(C)[C@@H](C)C(=O)N[C@@H](CCCNC(=N)N)C(=O)NCC(N)=O) [C18DA-gGlu3-Sar12-AEPipAc-Tyr-Phe-NMeLeu-Nle-NMeArg-NMeAla-Arg-Gly-NH2] | 1300 nM |
| EEXXXXXXXXXXYFLXXARG (HELM PEPTIDE1{[O=C(O)CCCCCCCCCCCCCCCCC(=O)[*:2]].[gGlu].[gGlu].[Sar].[Sar].[Sar].[Sar].[Sar].[Sar].[Sar].[Sar].[Sar].[O=C(CN1CCN(CCN[*:1])CC1)[*:2]].Y.F.[meL].[Nle].[Orn].[meA].R.G.[am]}$$$$V2.0; SMILES CCCC[C@H](NC(=O)[C@H](CC(C)C)N(C)C(=O)[C@H](Cc1ccccc1)NC(=O)[C@H](Cc1ccc(O)cc1)NC(=O)CN1CCN(CCNC(=O)CN(C)C(=O)CN(C)C(=O)CN(C)C(=O)CN(C)C(=O)CN(C)C(=O)CN(C)C(=O)CN(C)C(=O)CN(C)C(=O)CN(C)C(=O)CC[C@H](NC(=O)CC[C@H](NC(=O)CCCCCCCCCCCCCCCCC(=O)O)C(=O)O)C(=O)O)CC1)C(=O)N[C@@H](CCCN)C(=O)N(C)[C@@H](C)C(=O)N[C@@H](CCCNC(=N)N)C(=O)NCC(N)=O) [C18DA-gGlu2-Sar9-AEPipAc-Tyr-Phe-NMeLeu-Nle-Orn-NMeAla-Arg-Gly-NH2] | > 1000 nM |
| {C18 diacid}-[γGlu][γGlu][γGlu][Sar][Sar][Sar][Sar][Sar][Sar][Sar][Sar][Sar][Sar][Sar][Sar][Sar][Sar][Sar][Pipz(1-CH2CO,4-CH2CH2NH)]YF[NMeL][Nle][4Pal]PRG-NH2 (SMILES CCCC[C@H](NC(=O)[C@H](CC(C)C)N(C)C(=O)[C@H](Cc1ccccc1)NC(=O)[C@H](Cc1ccc(O)cc1)NC(=O)CN1CCN(CCNC(=O)CN(C)C(=O)CN(C)C(=O)CN(C)C(=O)CN(C)C(=O)CN(C)C(=O)CN(C)C(=O)CN(C)C(=O)CN(C)C(=O)CN(C)C(=O)CN(C)C(=O)CN(C)C(=O)CN(C)C(=O)CN(C)C(=O)CN(C)C(=O)CN(C)C(=O)CC[C@H](NC(=O)CC[C@H](NC(=O)CC[C@H](NC(=O)CCCCCCCCCCCCCCCCC(=O)O)C(=O)O)C(=O)O)C(=O)O)CC1)C(=O)N[C@@H](Cc1ccncc1)C(=O)N1CCC[C@H]1C(=O)N[C@@H](CCCNC(=N)N)C(=O)NCC(N)=O) [C18DA-gGlu3-Sar15-AEPipAc-Tyr-Phe-NMeLeu-Nle-4Pal-Pro-Arg-Gly-NH2] | > 1000 nM |
